As usually defined, the Kd is the concentration at which binding is half-saturated. Broadly, the koff is a measure of how fast the partners let go of each other. By kon is commonly meant the second-order rate constant of association. Low readings indicate slower complex formation, high ones faster complex formation.

Results on 24 molecules are retold here after patent publication US20200062863A1 (CSL BEHRING, published 2020).

To fix the notation:
T1: human Factor XIIa-beta (human, UniProt P00748 354-615, limits assumed)
T1 construct: Bought from Enzyme Research Laboratories; also called FXIIa beta; FXIIa-beta
T1 sequence: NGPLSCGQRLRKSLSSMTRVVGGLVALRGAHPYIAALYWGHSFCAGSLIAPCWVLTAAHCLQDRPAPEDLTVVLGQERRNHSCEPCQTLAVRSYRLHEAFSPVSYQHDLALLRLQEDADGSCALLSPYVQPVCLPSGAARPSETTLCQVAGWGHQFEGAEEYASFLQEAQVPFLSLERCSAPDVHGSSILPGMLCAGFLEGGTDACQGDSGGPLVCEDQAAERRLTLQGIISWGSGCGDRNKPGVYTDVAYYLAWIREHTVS

T2: human Factor XIIa-alpha (human, UniProt P00748 20-615)
T2 sequence: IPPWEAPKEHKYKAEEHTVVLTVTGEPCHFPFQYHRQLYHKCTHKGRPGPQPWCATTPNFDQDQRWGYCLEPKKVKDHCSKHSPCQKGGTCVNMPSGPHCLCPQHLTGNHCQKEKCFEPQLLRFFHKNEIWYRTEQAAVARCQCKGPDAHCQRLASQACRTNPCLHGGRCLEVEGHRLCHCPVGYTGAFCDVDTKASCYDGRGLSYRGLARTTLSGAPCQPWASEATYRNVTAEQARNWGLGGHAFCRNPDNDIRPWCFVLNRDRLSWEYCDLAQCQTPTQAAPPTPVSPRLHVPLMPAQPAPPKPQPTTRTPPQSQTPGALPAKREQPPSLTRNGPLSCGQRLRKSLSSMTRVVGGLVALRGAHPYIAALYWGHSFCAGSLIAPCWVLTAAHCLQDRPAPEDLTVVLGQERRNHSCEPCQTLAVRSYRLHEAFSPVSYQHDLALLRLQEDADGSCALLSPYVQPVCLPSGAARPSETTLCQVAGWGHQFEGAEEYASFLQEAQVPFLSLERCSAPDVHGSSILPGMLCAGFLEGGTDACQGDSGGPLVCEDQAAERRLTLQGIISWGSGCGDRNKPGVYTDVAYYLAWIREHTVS

B1: VR24 (antibody, V domains shown)
VH: EVQLLESGGGLVQPGGSLRLSCAASGFTFSKYIMQWVRQAPGKGLEWVSGIRPSGGTTVYADSVKGRFTISRDNSKNTLYLQMNSLRAEDTAVYYCARALPRSGYLISPHYYYYALDVWGQGTTVTVSS
VL: QSVLTQPPSASGTPGQRVTISCSGSSEMTVHHYVYWYQQLPGTAPKLLIYSNNQRPSGVPDRFSGSKSGTSASLAISGLRSEDEADYYCAAWDASLRGVFGGGTKLTVLG
B2: VR112 (antibody, V domains shown)
VH: B1 VH with R52N, P53V, S54P, G55V, G56Q, T57G
VL: B1 VL with V3E, E27S, M28N, T29I, V30G, H31R, H32N, L40V, A75V
B3: VR115 (antibody, V domains shown)
VH: B1 VH with R52D, P53I, S54P, G55T, G56K, T57G
VL: B1 VL with V3E, E27S, M28N, T29I, V30G, H31R, H32N, L40V, A75V
B4: VR119 (antibody, V domains shown)
VH: B1 VH with R52N, P53V, S54P, G55L, G56Y, T57G
VL: B1 VL with V3E, E27S, M28N, T29I, V30G, H31R, H32N, L40V, A75V
B5: VR110 (antibody, V domains shown)
VH: B1 VH with R52D, P53M, S54P, G55T, G56K, T57G
VL: B1 VL with V3E, E27S, M28N, T29I, V30G, H31R, H32N, L40V, A75V
B6: VR63 (antibody, V domains shown)
VH: B1 VH
VL: QSELTQPPSASGTPGQRVTISCSGSSSNIGRNYVYWYQQVPGTAPKLLIYSNNQRPSGVPDRFSGSKSGTSASLVISGLRSEDEADYYCAAWDNQVRLGFGGGTKLTVLG
notes: Libraries were built on germline stop templates, so frameworks may differ
B7: VR62 (antibody, V domains shown)
VH: B1 VH
VL: QSVLTQPPSASGTPGQRVTISCSGSSSNIGRNYVYWYQQLPGTAPKLLIYSNNQRPSGVPDRFSGSKSGTSASLAISGLRSEDEADYYCAAWDQQVRLDFGGGTKLTVL
notes: as for B6
B8: VR159 (antibody, V domains shown)
VH: B1 VH with I107V, S108K, P109H, H110G
VL: B6 VL with N94A, Q95S, V96L, L98G, G99V
notes: as for B6
B9: VR39 (antibody, V domains shown)
VH: B1 VH
VL: B7 VL with A91S, D93W, Q94N, Q95D, V96L, L98G, D99V
notes: as for B6
B10: VR14 (antibody, V domains shown)
VH: B1 VH
VL: B7 VL with S27G, N28M, I29V, G30E, R31Q, Q94A, Q95S, V96L, L98G, D99V
notes: as for B6
B11: VR108 (antibody, V domains shown)
VH: B1 VH with R52N, S54A, G55T, G56K
VL: B6 VL with N94A, Q95S, V96L, L98G, G99V
notes: as for B6
B12: VR149 (antibody, V domains shown)
VH: B1 VH with I107M, S108K, P109K, H110N
VL: B6 VL with N94A, Q95S, V96L, L98G, G99V
notes: as for B6
B13: VR103 (antibody, V domains shown)
VH: B1 VH with R52D, P53V, S54P, G55V, G56R, T57G
VL: B6 VL with N94A, Q95S, V96L, L98G, G99V
notes: as for B6
B14: VR160 (antibody, V domains shown)
VH: B1 VH with I107M, S108K, H110G
VL: B6 VL with N94A, Q95S, V96L, L98G, G99V
notes: as for B6
B15: VR167 (antibody, V domains shown)
VH: B1 VH with I107M, S108K, P109T, H110G
VL: B6 VL with N94A, Q95S, V96L, L98G, G99V
notes: as for B6
B16: VR109 (antibody, V domains shown)
VH: B1 VH with R52N, S54A, G55T, G56N
VL: B6 VL with N94A, Q95S, V96L, L98G, G99V
notes: as for B6
B17: VR53 (antibody, V domains shown)
VH: B1 VH
VL: B7 VL with L98K, D99T
notes: as for B6
B18: VR46 (antibody, V domains shown)
VH: B1 VH
VL: B7 VL with A91S, D93E, Q94L, Q95P, V96L, L98G, D99V
notes: as for B6
B19: VR107 (antibody, V domains shown)
VH: B1 VH with R52N, S54A, G55T, G56R
VL: B6 VL with N94A, Q95S, V96L, L98G, G99V
notes: as for B6
B20: VR148 (antibody, V domains shown)
VH: B1 VH with I107V, S108K, P109K, H110Q
VL: B6 VL with N94A, Q95S, V96L, L98G, G99V
notes: as for B6
B21: VR99 (antibody, V domains shown)
VH: B1 VH with R52N, S54A, G55T, G56M
VL: B6 VL with N94A, Q95S, V96L, L98G, G99V
notes: as for B6
B22: VR101 (antibody, V domains shown)
VH: B1 VH with R52N, S54A, G55T, G56R, T57S
VL: B6 VL with N94A, Q95S, V96L, L98G, G99V
notes: as for B6
B23: VR52 (antibody, V domains shown)
VH: B1 VH
VL: B7 VL with Q94E, Q95R, D99M
notes: as for B6
B24: VR58 (antibody, V domains shown)
VH: B1 VH
VL: B7 VL with Q94P, D99A
notes: as for B6

Where a chain is given by its changes, count along the chain named.

In the first experiment the target is T1, human Factor XIIa-beta. The experiment can be described thus: SPR (Biacore), purified IgG4 captured on anti-human IgG, FXIIa beta 0-40 nM, 1:1 fit, 25 C. (In general: SPR reads the build-up and loss of mass on a sensor chip optically.)
Consider B1, for which the affinity, expressed as Kd, was 0.26 nM; the koff stood at 6.4e-05 s⁻¹; the on-rate constant (kon) was found to be 240000 M⁻¹ s⁻¹.

Consider B2, for which the affinity, expressed as Kd, was 0.17 nM; the koff is 4.3e-05 s⁻¹; the on-rate (kon) was 250000 M⁻¹ s⁻¹.

As to B3, the equilibrium dissociation constant (Kd) was 0.15 nM, the koff is 2.5e-05 s⁻¹ and the kon worked out at 170000 M⁻¹ s⁻¹.

As to B4, the Kd was 0.36 nM, the koff stood at 5.9e-05 s⁻¹ and the kon came to 160000 M⁻¹ s⁻¹.

As for B5, the affinity, expressed as Kd, was 0.35 nM; the koff was 3.9e-05 s⁻¹; the on-rate (kon) was found to be 110000 M⁻¹ s⁻¹.

The next experiment addresses T1, human Factor XIIa-beta. The experiment is described as follows: SPR (Biacore A100), unpurified IgG4 supernatant captured on anti-human IgG, single FXIIa beta concentration (100 nM), 37 C, 1:1 fit; estimated. Here is the method:
Anti-human (Goat anti-human IgG (gamma) mouse adsorbed, Invitrogen, Cat No. H10500) was chemically immobilised on a CM-5 sensor surface using amine coupling chemistry. Culture supernatants were diluted 1/60 with running buffer before capture. Antibodies were captured for 180 seconds representing an average capture of 800 response units (RU). FXIIa beta was then injected at zero and 100 nM for 180 seconds, and dissociated for 180 seconds. All assays were conducted on a Biacore A100 instrument at 37 degrees Celsius and the data fitted to a 1:1 kinetic model.
As to B6, the Kd is 8.3 nM.

As to B7, the Kd is 5.81 nM.

As for B1, the Kd was 1.63 nM.

Take B8: the Kd is 6.93 nM.

With B2, the dissociation constant Kd was 1.52 nM.

As for B9, the Kd was 5.63 nM.

With B10, the equilibrium dissociation constant (Kd) is 6.22 nM.

Regarding B11, the dissociation constant (Kd) was 2.81 nM.

As to B12, the Kd was 5.12 nM.

Turning to B13, the dissociation constant (Kd) was 2.87 nM.

Regarding B14, the dissociation constant Kd was 7.13 nM.

Turning to B15, the Kd is 5.8 nM.

Consider B16, for which the Kd was 5.98 nM.

For B17, the Kd was 7.05 nM.

As to B3, the equilibrium dissociation constant (Kd) was 1.56 nM.

As for B4, the dissociation constant Kd was 1.31 nM.

Consider B5, for which the dissociation constant Kd was 2.04 nM.

With B18, the dissociation constant (Kd) was 6.67 nM.

Take B19: the Kd is 2.45 nM.

Regarding B20, the Kd was 6.93 nM.

Regarding B21, the Kd was 9.19 nM.

B22: the Kd was 3.33 nM.

As to B23, the Kd is 7.1 nM.

Consider B24, for which the equilibrium dissociation constant (Kd) is 5.33 nM.

For a further experiment, the target named is T1, human Factor XIIa-beta. The experiment can be described thus: SPR (Biacore), KD against parental 3F7.
As to B1, the Fold affinity improvement came to 33 fold.

B2: the Fold affinity improvement came out at 51 fold.

In the case of B3, the Fold affinity improvement worked out at 57 fold.

With B4, the Fold affinity improvement was 24 fold.

On to B5, for which the Fold affinity improvement is 25 fold.

A further experiment addresses T2, human Factor XIIa-alpha. The experiment can be described thus: cell-based or functional assay.
B1: the “% Inhibition, ratio FXIIa-alpha:Antibody 1:0.1” value was 34.5%; the “% Inhibition, ratio FXIIa-alpha:Antibody 1:0.2” value is 67.3%; the “% Inhibition, ratio FXIIa-alpha:Antibody 1:0.5” value stood at 99.7%; the “% Inhibition, ratio FXIIa-alpha:Antibody 1:1” value was determined as 100%. Also, the “% Inhibition, ratio FXIIa-alpha:Antibody 1:2” value turned out to be 100%; the “% Inhibition, ratio FXIIa-alpha:Antibody 1:5” value was found to be 100%; the “% Inhibition, ratio FXIIa-alpha:Antibody 1:10” value stood at 100%.

For B2, the “% Inhibition, ratio FXIIa-alpha:Antibody 1:0.1” value is 39.9%; the “% Inhibition, ratio FXIIa-alpha:Antibody 1:0.2” value was found to be 68.7%; the “% Inhibition, ratio FXIIa-alpha:Antibody 1:0.5” value was 99.7%; the “% Inhibition, ratio FXIIa-alpha:Antibody 1:1” value was determined as 100%. Besides, the “% Inhibition, ratio FXIIa-alpha:Antibody 1:2” value is 100%; the “% Inhibition, ratio FXIIa-alpha:Antibody 1:5” value stood at 100%; the “% Inhibition, ratio FXIIa-alpha:Antibody 1:10” value turned out to be 100%.

B3: the “% Inhibition, ratio FXIIa-alpha:Antibody 1:0.1” value is 39.4%; the “% Inhibition, ratio FXIIa-alpha:Antibody 1:0.2” value came out at 72.8%; the “% Inhibition, ratio FXIIa-alpha:Antibody 1:0.5” value was found to be 100%; the “% Inhibition, ratio FXIIa-alpha:Antibody 1:1” value was found to be 100%. The “% Inhibition, ratio FXIIa-alpha:Antibody 1:2” value worked out at 100%; the “% Inhibition, ratio FXIIa-alpha:Antibody 1:5” value was found to be 100%; the “% Inhibition, ratio FXIIa-alpha:Antibody 1:10” value was 100%.

Turning to B5, the % Inhibition, ratio FXIIa-alpha:Antibody 1:0.1 was determined as 33.7%; the % Inhibition, ratio FXIIa-alpha:Antibody 1:0.2 turned out to be 66.9%; the % Inhibition, ratio FXIIa-alpha:Antibody 1:0.5 was found to be 100%; the % Inhibition, ratio FXIIa-alpha:Antibody 1:1 stood at 100%. In addition, the % Inhibition, ratio FXIIa-alpha:Antibody 1:2 stood at 100%; the % Inhibition, ratio FXIIa-alpha:Antibody 1:5 worked out at 100%; the % Inhibition, ratio FXIIa-alpha:Antibody 1:10 came to 100%.
